Data from patent publication US20240409663A1 (CONCEPT TO MEDICINE BIOTECH, published 2024).

Legend:
human GPC3 on cells [1] = molecular target: T1, human GPC3 on cells (human, UniProt P51654 25-554); assay: FACS, Hep3B cells
T1 construct: whole, on cells; over-expressed on CHOK1 cells or endogenous on HEPG2, Hep3B and Huh-7 hepatocellular carcinoma cells; the cell line is named under assay; also called GPC3-CHOK1 cells; human GPC3 over-expressed CHOK1 cells
Description: (§1) Cell-based binding: FACS was used to evaluate the binding activity of 52H5D3B8 chimeric mAbs with comparison to a known GPC3 antibody GC33 (Chugai Pharmaceutical) on human GPC3 over-expressed CHOK1 cells, HEPG2 cells, Hep3B cells and Huh-7 cells.
(§2) Briefly, GPC3-CHOK1 cells, HEPG2 cells, Hep3B cells or Huh-7 cells were firstly incubated with Fc blocking reagent at 4° C. for 15 mins. Cells were washed by FACS buffer and divided to each well with 3-fold serially diluted 52H5D3B8 chimeric mAbs or GC33 mAb starting at 30 μg/mL at 4° C. for 60 mins. Cells were washed by FACS buffer and fixed with 2% PFA at RT for 15 mins. […] Samples were washed twice with FACS buffer.

[2] = molecular target: T2, human GPC3-his tag protein (human, UniProt P51654 25-559, limits assumed); assay: SPR Biacore 8K, mAb captured on CM5, GPC3-his dilution series
T2 construct: recombinant soluble antigen used as analyte in all Biacore runs; also called recombinant GPC3 protein; rhGPC3-His; not shown: His tag
Description: The binding of the chimeric 52H5D3B8 mAb to human GPC3-his was tested with Biacore using a capture method. The 52H5D3B8 mAb was captured using CM5 sensor chip. A serial dilution of human GPC3-his tag protein was injected over captured antibody for 2 mins at a flow rate of 30 μl/min. The antigen was allowed to dissociate for 360 s. All the experiments were carried out on a Biacore 8K. Data analysis was carried out using Biacore 8K evaluation software.

human GPC3 on cells [3] = molecular target: T1, human GPC3 on cells; assay: FACS, GPC3-CHOK1 cells
Description: (§3) To evaluate the antigen binding property, the humanized antibodies were analyzed for their binding to human GPC3 over-expressed CHOK1 cells and Huh-7 cells by FACS. Briefly, GPC3-CHOK1 cells and Huh-7 cells were firstly incubated with Fc blocking reagent at 4° C. for 15 mins. Cells were washed by FACS buffer and divided to each well with 4-fold serially diluted humanized antibodies starting at 10 μg/mL at 4° C. for 60 mins. Cells were washed by FACS buffer and fixed with 2% PFA at RT for 15 mins. […] As different plates might affect the EC50 of 52H5D3B8-VH+VL, the 12 humanized antibodies were separated into two plates.

human GPC3 on cells [4] = molecular target: T1, human GPC3 on cells; assay: FACS, GPC3-CHOK1 cells; remark: listed apart in the source
Description: as §1, §2

human GPC3 on cells [5] = molecular target: T1, human GPC3 on cells; assay: FACS, Hep3B cells; remark: listed apart in the source
Description: (§4) Cell-based binding: FACS was used to evaluate the binding activity of 52H5D3B8, 52H5D3B8-6 # chimeric mAbs and GC33 antibody on human GPC3 over-expressed CHOK1 cells, Hep3B cells and Huh-7 cells.
as §2, with “GPC3-CHOK1” for “GPC3-CHOK1 cells, HEPG2”, “diluted 52H5D3B8, 52H5D3B8-6 #” for “diluted 52H5D3B8”, “GC33 antibody” for “GC33 mAb”

human GPC3 on cells [6] = molecular target: T1, human GPC3 on cells; assay: FACS, GPC3-CHOK1 cells; remark: listed apart in the source
Method in brief: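 After Fc blocking (4 °C, 15 min), GPC3-CHOK1 cells were incubated for 60 min at 4 °C with 3-fold serially diluted chimeric mAbs starting at 30 μg/mL. Cells then washed and fixed in 2% PFA at room temperature for 15 min.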

human GPC3 on cells [7] = molecular target: T1, human GPC3 on cells; assay: FACS, Huh-7 cells
Description: as §3

human GPC3 on cells [8] = molecular target: T1, human GPC3 on cells; assay: FACS, HEPG2 cells
Description: as §1, §2

[9] = molecular target: T2, human GPC3-his tag protein; assay: SPR Biacore 8K, mAb captured, affinity ranking
Description: To evaluate antigen binding activity, the chimeric antibody's affinity was measured by Biacore 8K. Two concentrations with most close affinity to the chimeric antibody's affinity were chosen for the 12 humanized antibodies' affinity detection. Human GPC3-his tag protein was injected over captured antibody for 3 mins at a flow rate of 30 μl/min. The antigen was allowed to dissociate for 720 s.

[10] = molecular target: T3, human GPC3 protein (ELISA coat) (human, UniProt P51654 25-559, limits assumed); assay: ELISA, coated human GPC3
T3 construct: protein coated on plates in the cross species ELISA
Description: ELISA testing was carried out to evaluate the binding of chimeric antibodies to human, mouse and cynomolgus GPC3, respectively.
Briefly, microtiter plates were coated with human, mouse and cynomolgus GPC3 proteins at 1 μg/ml in PBS, 100 μl/well at 4° C. overnight, then blocked with 150 μl/well of 1% BSA. Three-fold dilutions of chimeric antibodies starting from 9 μg/ml were added to each well and incubated for 1 hour at 37° C. The plates were washed with PBS/Tween and then incubate with mouse-anti-human IgG Fc antibody conjugated with Horse Radish Peroxidase (HRP) for 30 mins at 37° C. After washing, the plates were developed with TMB substrate and analyzed by spectrophotometer at OD 450 nm. The 52H5D3B8 antibody bound to human, cynomolgus GPC3 and mouse GPC3 (FIG. 3 and Table 4).

human GPC3 on cells [11] = molecular target: T1, human GPC3 on cells; assay: FACS, GPC3-CHOK1 cells; remark: listed apart in the source
Description: as §4
as §2, with “GPC3-CHOK1” for “GPC3-CHOK1 cells, HEPG2”, “diluted 52H5D3B8, 52H5D3B8-6 #” for “diluted 52H5D3B8”, “GC33 antibody” for “GC33 mAb”

EC50 (human GPC3 on cells [1]): 0.192 µg/mL
Kd [2]: 0.843 nM
koff [2]: 0.000466 s⁻¹
kon [2]: 552000 M⁻¹ s⁻¹
EC50 (human GPC3 on cells [3]): 0.0479 µg/mL
EC50 (human GPC3 on cells [4]): 0.0922 µg/mL
EC50 (human GPC3 on cells [5]): 0.217 µg/mL
EC50 (human GPC3 on cells [6]): 0.0705 µg/mL
EC50 (human GPC3 on cells [7]): 0.0563 µg/mL
EC50 (human GPC3 on cells [8]): 0.111 µg/mL
Kd [9]: 1.41 nM
koff [9]: 0.00049 s⁻¹
kon [9]: 347000 M⁻¹ s⁻¹
EC50 [10]: 0.017 µg/mL
EC50 (human GPC3 on cells [11]): 0.07 µg/mL
B1: 52H5D3B8 chimeric mAb (antibody, V domains shown)
VH: QVQLQQSGAELVRPGASVKLSCKALGYTFTDYEMHWVKQTPVHGLEWIGAIHPGSGGTAYNQKFKGKATLTADKFSSTGYMELSSLTSEDSAVYYCTRFYSYAYWGQGTLVTVSA
VL: DVVMTQTPLSLPVSLGDQASISCRSSQSLVHSNGNTYLQWYLQKPGQSPKLLIYKVSNRFSGVPDRFSGSGSGTDFILKISRVEAEDLGVYFCSQSIHVPYTFGGGTKLEIK
notes: also called 52H5D3B8-VH+VL; chimeric 52H5D3B8 mAb
